According to publication PMC12719649:

Key:
[1] = biological target: MED14-NTD+H+M+MED26, 16-subunit recombinant human core Mediator with f:MED14-NTD (1-760) (human) (UniProt O60244); assay: co-IP; competition: MED14-NTD+H+M+MED26 on anti-MED30 beads with Pol II and recombinant RPB1 as competitor, equal amounts of His:RPB1 or up to 10-fold more f:RPB1 or f:ΔCTD RPB1 than Pol II; western blot
[2] = biological target: MED14-NTD+H+M+MED26, 16-subunit recombinant human core Mediator with f:MED14-NTD (1-760) (human) (UniProt O60244)

Substance | percent reversal of the MED14-NTD+H+M+MED26-Pol II interaction at a 1:1 ratio [1] [%] | basal in vitro transcription from AdML core promoter templates in Mediator-depleted HeLa NE, 50 nM complex, against Mediator-deficient controls [2] [fold]
recombinant His:RPB1 (from UniProt P24928 1-1970) (natural protein) | < 50 | 
RNA polymerase II (Pol II), Gdown1-free, purified from HeLa nuclear extract (from UniProt P24928 1-1970; P30876 1-1174; P19387 1-275; O15514 1-142; P19388 1-210; P61218 1-127; P62487 1-172; P52434 1-150; P36954 1-125; P62875 1-67; P52435 1-117; P53803 1-58) (complex) |  | > 15
